Earlier results in paper PMC5700508.

Biological target: transferrin receptor (Homo sapiens) (UniProt P02786)
Sequence (P02786 101-760): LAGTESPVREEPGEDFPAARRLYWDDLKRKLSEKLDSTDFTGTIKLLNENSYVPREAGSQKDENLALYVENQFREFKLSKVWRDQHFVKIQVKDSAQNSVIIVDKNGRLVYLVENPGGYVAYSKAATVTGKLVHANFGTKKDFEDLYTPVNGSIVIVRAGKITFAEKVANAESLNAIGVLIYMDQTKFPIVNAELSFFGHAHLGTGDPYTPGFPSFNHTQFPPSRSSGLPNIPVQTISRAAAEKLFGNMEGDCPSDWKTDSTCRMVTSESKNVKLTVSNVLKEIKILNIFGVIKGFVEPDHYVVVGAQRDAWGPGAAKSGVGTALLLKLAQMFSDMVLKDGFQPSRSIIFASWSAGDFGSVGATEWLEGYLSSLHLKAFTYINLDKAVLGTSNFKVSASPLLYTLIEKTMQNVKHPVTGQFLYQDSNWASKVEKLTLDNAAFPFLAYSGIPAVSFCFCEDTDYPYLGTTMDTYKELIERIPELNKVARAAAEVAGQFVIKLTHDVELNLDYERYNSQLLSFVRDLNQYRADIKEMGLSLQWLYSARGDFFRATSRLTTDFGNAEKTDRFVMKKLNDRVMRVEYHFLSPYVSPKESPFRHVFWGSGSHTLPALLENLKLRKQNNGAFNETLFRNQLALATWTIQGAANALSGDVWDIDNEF

Kd: 10 nM
Substance: T7 peptide
